According to paper PMC9352680, “A comprehensive thermodynamic model for RNA binding by the Saccharomyces cerevisiae Pumilio protein PUF4”:

Target: T1, PUF4 RNA-binding domain (Saccharomyces cerevisiae, UniProt P25339 537-888)
T1 sequence: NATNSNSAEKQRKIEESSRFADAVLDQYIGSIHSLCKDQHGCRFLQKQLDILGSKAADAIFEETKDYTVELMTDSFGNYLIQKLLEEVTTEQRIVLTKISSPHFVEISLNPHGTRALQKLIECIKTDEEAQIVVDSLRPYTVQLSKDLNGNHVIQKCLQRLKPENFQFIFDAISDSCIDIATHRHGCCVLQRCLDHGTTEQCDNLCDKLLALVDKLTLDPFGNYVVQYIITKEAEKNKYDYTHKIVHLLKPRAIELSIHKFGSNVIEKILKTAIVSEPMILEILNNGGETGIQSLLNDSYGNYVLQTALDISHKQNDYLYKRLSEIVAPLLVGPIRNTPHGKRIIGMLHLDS
Experiment: Mg; RNA-MaP; 20 mM Na-HEPES pH 7.4, 30 mM KOAc, 0.75 mM MgCl2, 0.1% Tween-20, 5% glycerol, 0.1 mg/mL BSA, 2 mM DTT; 25 C; 0.0125-409.6 nM protein
Conditions: tags: N-His6-TEV cleaved; C-SNAP kept, Cy3B-labelled; label: tethered on chip by stalled RNA polymerase

B1: Ie_S2_P4E.1_K4.1_C4.1_H4.1_[+1CCTC]_A4.1_F4.1_T4.1 (ssRNA)
RNA: UUUGAUUAAUAUGAUAUCGUUCUUUCUUCCUCGUAUAUUAUUCUUUCUCGAUAUCAUAUUAAUCUUU
- Kd: 5.67 nM

B2: Ie_S2_P4E.1_K4.1_C4.1_H4.1_[+2CCCT]_A4.1_F4.1_T4.1 (ssRNA)
RNA: UUUGAUUAAUAUGAUAUCGUUCUUUCUUGCCCUUAUAUUAUUCUUUCUCGAUAUCAUAUUAAUCUUU
- Kd: 127 nM

B3: Ie_S2_P4E.1_K4.1_C4.1_H4.1_[+1CCCT]_A4.1_F4.1_T4.1 (ssRNA)
RNA: UUUGAUUAAUAUGAUAUCGUUCUUUCUUCCCUGUAUAUUAUUCUUUCUCGAUAUCAUAUUAAUCUUU
- Kd: 0.188 nM

B4: Ie_S2_P4E.1_K4.1_C4.1_H4.1_[+3CCTC]_A4.1_F4.1_T4.1 (ssRNA)
RNA: UUUGAUUAAUAUGAUAUCGUUCUUUCUUGUCCUCAUAUUAUUCUUUCUCGAUAUCAUAUUAAUCUUU
- Kd: 106 nM

B5: Ie_S2_P4E.1_K4.1_C4.1_H4.1_[+2CTCT]_A4.1_F4.1_T4.1 (ssRNA)
RNA: UUUGAUUAAUAUGAUAUCGUUCUUUCUUGCUCUUAUAUUAUUCUUUCUCGAUAUCAUAUUAAUCUUU
- Kd: 47.4 nM

B6: Ie_S2_P4E.1_K4.1_C4.1_H4.1_[+2TTCC]_A4.1_F4.1_T4.1 (ssRNA)
RNA: UUUGAUUAAUAUGAUAUCGUUCUUUCUUGUUCCUAUAUUAUUCUUUCUCGAUAUCAUAUUAAUCUUU
- Kd: 17.9 nM

B7: Ie_S2_P4E.1_K4.1_C4.1_H4.1_[+3CCCT]_A4.1_F4.1_T4.1 (ssRNA)
RNA: UUUGAUUAAUAUGAUAUCGUUCUUUCUUGUCCCUAUAUUAUUCUUUCUCGAUAUCAUAUUAAUCUUU
- Kd: 41.4 nM

B8: Ie_S2_P4E.1_K4.1_C4.1_H4.1_[+2TCTC]_A4.1_F4.1_T4.1 (ssRNA)
RNA: UUUGAUUAAUAUGAUAUCGUUCUUUCUUGUCUCUAUAUUAUUCUUUCUCGAUAUCAUAUUAAUCUUU
- Kd: 16.8 nM

B9: Ie_S2_P4E.1_K4.1_C4.1_H4.1_A4.1_[+5CTCT]_F4.1_T4.1 (ssRNA)
RNA: UUUGAUUAAUAUGAUAUCGUUCUUUCUUGUAUCUCUAUUAUUCUUUCUCGAUAUCAUAUUAAUCUUU
- Kd: 4.51 nM

B10: Ie_S2_P4E.1_K4.1_C4.1_H4.1_[+2C]_A4.1_F4.1_T4.1 (ssRNA)
RNA: UUUGAUUAAUAUGAUAUCGUUCUUUCUUGCUAUAUUAUUCUUUCUCGAUAUCAUAUUAAUCUUU
- Kd: 81.5 nM

B11: If_S2_P5E.1_K5.1_C5.1_H5.1_A5.1_F5.1_T5.1 (ssRNA)
RNA: UUUGAUUAAUAUGAUAUCGUUCUUUCUUGUAUUAUUAUUCUUUCUCGAUAUCAUAUUAAUCUUU
- Kd: 1.92 nM

B12: Ie_S2_P4E.1_K4.1_C4.1_H4.1_[+1TTC]_A4.1_F4.1_T4.1 (ssRNA)
RNA: UUUGAUUAAUAUGAUAUCGUUCUUUCUUUUCGUAUAUUAUUCUUUCUCGAUAUCAUAUUAAUCUUU
- Kd: 7.09 nM

B13: Ie_S2_P4E.1_K4.1_C4.1_H4.1_[+3CTC]_A4.1_F4.1_T4.1 (ssRNA)
RNA: UUUGAUUAAUAUGAUAUCGUUCUUUCUUGUCUCAUAUUAUUCUUUCUCGAUAUCAUAUUAAUCUUU
- Kd: 9.57 nM

B14: Ie_S2_P5E.1_K5.1_C5.1_H5.1_[+4TC]_A5.1_F5.1_T5.1 (ssRNA)
RNA: UUUGAUUAAUAUGAUAUCGUUCUUUCUUGUAUCUUAUUAUUCUUUCUCGAUAUCAUAUUAAUCUUU
- Kd: 1.55 nM

B15: Ie_S2_P5E.1_K5.1_C5.1_H5.1_A5.1_[+6CT]_F5.1_T5.1 (ssRNA)
RNA: UUUGAUUAAUAUGAUAUCGUUCUUUCUUGUAUUCUAUUAUUCUUUCUCGAUAUCAUAUUAAUCUUU
- Kd: 1.41 nM

B16: Ie_S2_P4E.1_K4.1_C4.1_H4.1_[+1CTT]_A4.1_F4.1_T4.1 (ssRNA)
RNA: UUUGAUUAAUAUGAUAUCGUUCUUUCUUCUUGUAUAUUAUUCUUUCUCGAUAUCAUAUUAAUCUUU
- Kd: 0.196 nM

B17: Ie_S2_P5E.1_K5.1_C5.1_H5.1_[+4CT]_A5.1_F5.1_T5.1 (ssRNA)
RNA: UUUGAUUAAUAUGAUAUCGUUCUUUCUUGUACUUUAUUAUUCUUUCUCGAUAUCAUAUUAAUCUUU
- Kd: 0.922 nM

B18: Ie_S2_P5E.1_K5.1_C5.1_H5.1_[+4TT]_A5.1_F5.1_T5.1 (ssRNA)
RNA: UUUGAUUAAUAUGAUAUCGUUCUUUCUUGUAUUUUAUUAUUCUUUCUCGAUAUCAUAUUAAUCUUU
- Kd: 1.57 nM

B19: Ie_S2_P4E.1_K4.1_C4.1_H4.1_[+2TCC]_A4.1_F4.1_T4.1 (ssRNA)
RNA: UUUGAUUAAUAUGAUAUCGUUCUUUCUUGUCCUAUAUUAUUCUUUCUCGAUAUCAUAUUAAUCUUU
- Kd: 10.9 nM

B20: Ie_S2_P4E.1_K4.1_C4.1_H4.1_[+4TCC]_A4.1_F4.1_T4.1 (ssRNA)
RNA: UUUGAUUAAUAUGAUAUCGUUCUUUCUUGUAUCCUAUUAUUCUUUCUCGAUAUCAUAUUAAUCUUU
- Kd: 2.35 nM

B21: Ie_S2_P4E.1_K4.1_C4.1_H4.1_[+2CTT]_A4.1_F4.1_T4.1 (ssRNA)
RNA: UUUGAUUAAUAUGAUAUCGUUCUUUCUUGCUUUAUAUUAUUCUUUCUCGAUAUCAUAUUAAUCUUU
- Kd: 111 nM

B22: Ie_S2_P4E.1_K4.1_C4.1_H4.1_[+1TCT]_A4.1_F4.1_T4.1 (ssRNA)
RNA: UUUGAUUAAUAUGAUAUCGUUCUUUCUUUCUGUAUAUUAUUCUUUCUCGAUAUCAUAUUAAUCUUU
- Kd: 0.234 nM

B23: Ie_S2_P4E.1_K4.1_C4.1_H4.1_[+4CCT]_A4.1_F4.1_T4.1 (ssRNA)
RNA: UUUGAUUAAUAUGAUAUCGUUCUUUCUUGUACCUUAUUAUUCUUUCUCGAUAUCAUAUUAAUCUUU
- Kd: 1.13 nM

B24: Ie_S2_P4E.1_K4.1_C4.1_H4.1_[+3CTT]_A4.1_F4.1_T4.1 (ssRNA)
RNA: UUUGAUUAAUAUGAUAUCGUUCUUUCUUGUCUUAUAUUAUUCUUUCUCGAUAUCAUAUUAAUCUUU
- Kd: 14.4 nM

B25: Ie_S2_P4E.1_K4.1_C4.1_H4.1_[+2CT]_A4.1_F4.1_T4.1 (ssRNA)
RNA: UUUGAUUAAUAUGAUAUCGUUCUUUCUUGCUUAUAUUAUUCUUUCUCGAUAUCAUAUUAAUCUUU
- Kd: 198 nM

B26: Ie_S2_P5E.1_K5.1_C5.1_H5.1_[+4T]_A5.1_F5.1_T5.1 (ssRNA)
RNA: UUUGAUUAAUAUGAUAUCGUUCUUUCUUGUAUUUAUUAUUCUUUCUCGAUAUCAUAUUAAUCUUU
- Kd: 11.6 nM

B27: Ie_S2_P4E.1_K4.1_C4.1_H4.1_[+3TT]_A4.1_F4.1_T4.1 (ssRNA)
RNA: UUUGAUUAAUAUGAUAUCGUUCUUUCUUGUUUAUAUUAUUCUUUCUCGAUAUCAUAUUAAUCUUU
- Kd: 34.1 nM

B28: Ie_S2_P4E.1_K4.1_C4.1_H4.1_A4.1_[+5CT]_F4.1_T4.1 (ssRNA)
RNA: UUUGAUUAAUAUGAUAUCGUUCUUUCUUGUAUCUAUUAUUCUUUCUCGAUAUCAUAUUAAUCUUU
- Kd: 5.74 nM

B29: Ie_S2_P4E.1_K4.1_C4.1_H4.1_[+2TC]_A4.1_F4.1_T4.1 (ssRNA)
RNA: UUUGAUUAAUAUGAUAUCGUUCUUUCUUGUCUAUAUUAUUCUUUCUCGAUAUCAUAUUAAUCUUU
- Kd: 27.8 nM

B30: Ib_S2_P3E.1_K3.1_C3.1_H3.1_A3.1_[A6C]_F3.1_[A8G]_T3.1 (ssRNA)
RNA: UUUGAUUAAUAUGAUAUCGUUCUUUCUUGUAUCUGUUCUUUCUCGAUAUCAUAUUAAUCUUU
- Kd: 14.7 nM

B31: Ib_S2_P3E.1_K3.1_C3.1_H3.1_A3.1_[A6G]_F3.1_[A8C]_T3.1 (ssRNA)
RNA: UUUGAUUAAUAUGAUAUCGUUCUUUCUUGUAUGUCUUCUUUCUCGAUAUCAUAUUAAUCUUU
- Kd: 90.1 nM

B32: Ic_S2_P3E.1_K3.1_C3.1_H3.1_A3.1_[A6C]_F3.1_[A8C]_T3.1 (ssRNA)
RNA: UUUGAUUAAUAUGAUAUCGUUCUUUCUUGUAUCUCUUCUUUCUCGAUAUCAUAUUAAUCUUU
- Kd: 15.4 nM

B33: Ib_S2_P3E.1_K3.1_C3.1_H3.1_A3.1_[A6T]_F3.1_[A8G]_T3.1 (ssRNA)
RNA: UUUGAUUAAUAUGAUAUCGUUCUUUCUUGUAUUUGUUCUUUCUCGAUAUCAUAUUAAUCUUU
- Kd: 37.8 nM

B34: Ie_S2_P4E.1_K4.1_C4.1_H4.1_[+1TCTCT]_A4.1_F4.1_T4.1 (ssRNA)
RNA: UUUGAUUAAUAUGAUAUCGUUCUUUCUUUCUCUGUAUAUUAUUCUUUCUCGAUAUCAUAUUAAUCUUU
- Kd: 0.249 nM

B35: Ie_S2_P4E.1_K4.1_C4.1_H4.1_[+1CCCTT]_A4.1_F4.1_T4.1 (ssRNA)
RNA: UUUGAUUAAUAUGAUAUCGUUCUUUCUUCCCUUGUAUAUUAUUCUUUCUCGAUAUCAUAUUAAUCUUU
- Kd: 0.12 nM

B36: Ie_S2_P4E.1_K4.1_C4.1_H4.1_[+1TTCCT]_A4.1_F4.1_T4.1 (ssRNA)
RNA: UUUGAUUAAUAUGAUAUCGUUCUUUCUUUUCCUGUAUAUUAUUCUUUCUCGAUAUCAUAUUAAUCUUU
- Kd: 0.215 nM

B37: Ie_S2_P4E.1_K4.1_C4.1_H4.1_[+3TCTCT]_A4.1_F4.1_T4.1 (ssRNA)
RNA: UUUGAUUAAUAUGAUAUCGUUCUUUCUUGUUCUCUAUAUUAUUCUUUCUCGAUAUCAUAUUAAUCUUU
- Kd: 12 nM

B38: Ie_S2_P4E.1_K4.1_C4.1_H4.1_[+1CCTCT]_A4.1_F4.1_T4.1 (ssRNA)
RNA: UUUGAUUAAUAUGAUAUCGUUCUUUCUUCCUCUGUAUAUUAUUCUUUCUCGAUAUCAUAUUAAUCUUU
- Kd: 0.166 nM

B39: Ie_S2_P4E.1_K4.1_C4.1_H4.1_[+3CCCTT]_A4.1_F4.1_T4.1 (ssRNA)
RNA: UUUGAUUAAUAUGAUAUCGUUCUUUCUUGUCCCUUAUAUUAUUCUUUCUCGAUAUCAUAUUAAUCUUU
- Kd: 35.8 nM

B40: Ie_S2_P4E.1_K4.1_C4.1_H4.1_[+3TTCCT]_A4.1_F4.1_T4.1 (ssRNA)
RNA: UUUGAUUAAUAUGAUAUCGUUCUUUCUUGUUUCCUAUAUUAUUCUUUCUCGAUAUCAUAUUAAUCUUU
- Kd: 17.5 nM

B41: Ie_S2_P4E.1_K4.1_C4.1_H4.1_[+2CCTCT]_A4.1_F4.1_T4.1 (ssRNA)
RNA: UUUGAUUAAUAUGAUAUCGUUCUUUCUUGCCUCUUAUAUUAUUCUUUCUCGAUAUCAUAUUAAUCUUU
- Kd: 122 nM

B42: Ie_S2_P4E.1_K4.1_C4.1_H4.1_[+2TCTCT]_A4.1_F4.1_T4.1 (ssRNA)
RNA: UUUGAUUAAUAUGAUAUCGUUCUUUCUUGUCUCUUAUAUUAUUCUUUCUCGAUAUCAUAUUAAUCUUU
- Kd: 26.5 nM

B43: Ie_S2_P4E.1_K4.1_C4.1_H4.1_[+2CTCTC]_A4.1_F4.1_T4.1 (ssRNA)
RNA: UUUGAUUAAUAUGAUAUCGUUCUUUCUUGCUCUCUAUAUUAUUCUUUCUCGAUAUCAUAUUAAUCUUU
- Kd: 101 nM

B44: Ie_S2_P4E.1_K4.1_C4.1_H4.1_[+3CTCTC]_A4.1_F4.1_T4.1 (ssRNA)
RNA: UUUGAUUAAUAUGAUAUCGUUCUUUCUUGUCUCUCAUAUUAUUCUUUCUCGAUAUCAUAUUAAUCUUU
- Kd: 135 nM
